According to US20240279601A1, “METHODS OF GENERATING SACRAL NEURAL CREST LINEAGES AND USES THEREOF” (MEMORIAL SLOAN-KETTERING CANCER CENTER, priority 2021, published 2024):
Ends that are not written are not given here.

Legend:
[1] = test system: hPSCs; assay: HOX and NC gene expression (qRT-PCR) during neural crest differentiation of hPSCs; assay type: cell-based, human; settings: for expression of HOX regulatory genes (CDX1, CDX2, CDX4): combined treatment with CHIR99021 and FGF2; for expression of posterior genes HoxB7, HoxC9, HoxA10 and CDX4: different concentrations of FGF2 and CHIR99021 together
Procedure: NC differentiation. The basic NC differentiation protocols used are based on previous works (Fattahi et al., Nature 531, 105-109, 2016; Tchieu et al., Cell Stem Cell 21, 399-410 e397, 2017). Briefly, matrigel (Thermo Fisher, A1413201) was diluted at 1:100 ratio in DMEMF-12 (Thermo Fisher, 21331020) and plates were coated with the diluted matrigel overnight at 4° C. For inducing differentiation, hESCs or iPSCs were dissociated at 70%-80% confluence using EDTA dissociation buffer and replated as a single cell suspension on matrigel-coated 24-well plates at a density of 100K cells/cm^2 in E6 medium containing 10 μM ROCK-inhibitor (Y-27632; R&D, 1254). The cells were kept in E6 medium (Thermo Fisher, A1516401)+Y-27632 overnight. The next day, the medium was switched to NC induction medium. For cranial differentiation, the cells were kept in E6 medium containing 10 μM SB431542 (R&D, 1614), […] (R&D, 314-BP), and 0.6 μM CHIR (R&D, 4423) for the first 2 days and then switched to E6 medium containing 10 μM SB431542 and 1.5 μM CHIR for 10 days. For vagal NC the same conditions were used with an additional 1 μM RA (Sigma, R2625) added to the medium starting from D6. To establish the sacral NC protocol, the cranial NC protocol was modified with varying concentrations of FGF2 (R&D, 233-FB/CF), CHIR and GDF11 (Peprotech, 120-11), added at different time points as detailed in the results section. For the generation of melanocytes, 100 nM EDN3 (American Peptide company, 88-5-10B) was added to the sacral NC protocol from day 14 to day 20. In experiments testing the RA hypothesis, the sacral NC protocol was modified using either 1 μM RA (Sigma, R2625) or 100 nM AGN (Tocris, 5758) as detailed in the experimental design section.
RNA extraction and RT-qPCR. RNA was prepared from samples collected with the Zymo Direct-zol Kit and extracted using the Direct-zol RNA MiniPrep kit. cDNA was generated using the iScript Reverse Transcription Supermix for RT-qPCR. For qPCR analysis, primers were obtained from QIAGEN or IDT and the reactions were performed following manufacturers' instructions using SsoFast EvaGreen® Supermix. The Assays were run on BioRad CFX384 Real-Time PCR machine. Results were normalized to GAPDH housekeeping genes.

[2] = test system: rodent GSK3β homologs; settings: against rodent GSK3β homologs; cited from earlier work
[3] = test system: sacral NC; assay: Migration (surface area) of NC cells in response to growth factors; assay type: cell-based, human
Procedure: (§1) Fluorescence image of cells and their migration at different time points: 0 hour (upper panel), 24 hours (middle panel), 48 hours (bottom panel). Scale bars, 50 pm. […] Scale bars, 500 pm. […] N=6 biological replicates. FIGS. 32D and 32E show surface area VNC or SNC cells in response to different growth factors. 1 equates to standard concentration (100 nM and 25 ng/ml for EDN3 and GDN F respectively), 0.1 equates to 1/10 of standard concentration and 10 equates to 10 times higher than the standard concentration. Surface area is quantified by ImageJ. N=4 biological replicates. […] The images are taken at different time points after transplantation: 1 Hour (left panel), 2 weeks (middle panel), 4 weeks (right panel). […] Data are present as Mean±SEM; ns: not significant P>0.05; *P≤0.05; **P≤0.01; ***P≤0.001; ****P≤0.0001
(§2) Migration and co-differentiation assays. Transwell assay: to test capacity of NC cells for invasion, we used the CytoSelect 24-Well Cell Invasion Assay, Basement (Cell Biolabs). We plated 200K cells per chamber in neural spheroids medium and added 500 μL of neural spheroid medium containing 10% fetal bovine serum to the lower well of the invasion plate and incubated the plate for 48 h at 37° C. in 5% CO2 atmosphere. Cells that crossed through the invasion chamber were stained with the Cell Stain Solution provided with the kit (Cell Biolabs) and examined under the microscope. The stained cells were then lysed and measured by plate reader for quantification. Migration assay: vagal or sacral neural spheroids were generated as described in enteric neuron differentiation section. Those spheroids were plated down on a 2D PO/LM/FN coated plated for assessing surface migration or embedded in […]) Matrigel for assessing migration within a Matrigel pellet. Pictures were taken at sequential time points post plating to trace the migration process. Scratch assay: vagal or sacral NC cells were plated on PO/LM/FN coated 24 well plates at density of 100×10^3 cells per cm^2. After 24 h, the culture lawn is scratched manually using a pipette tip. Live images are taken at different time points after the scratch was made to trace the migration.

[4] = test system: vagal NC; assay: as above; assay type: cell-based, human; settings: 0.1x, 1x, 10x of standard concentration (100 nM EDN3, 25 ng/ml GDNF)
Procedure: as §1, §2

[5] = test system: hPSCs; assay: RNA-seq and ATAC-seq of NC differentiation with or without GDF11; assay type: cell-based, human
Procedure: RNA sequencing (RNA-seq). Cells were disassociated with Accutase for 20 minutes at 37° C. The cells were collected into 15 mL falcon tubes and DMEMF-12 containing 2% FBS was added to neutralize the enzyme. The cells were spun down and washed with PBS twice. The cells were spun down again in 1.5 mL Eppendorf tube and resuspended in 500 μL TRIzol (ThermoFisher catalog #15596018) and stored at −80° C. When all data points were collected, the samples underwent RNA extraction and RNA-seq as performed by the IGO core at MSKCC. Briefly, phase separation in cells lysed in 1 mL TRIzol Reagent was induced with 200 μL chloroform and RNA was extracted from the aqueous phase using the miRNeasy Mini Kit (Qiagen catalog #217004) on the QIAcube Connect (Qiagen) according to the manufacturer's protocol with 350 μL input. Samples were eluted in 15 μL RNase-free water. After RiboGreen quantification and quality control by Agilent BioAnalyzer, 500 ng of total RNA with RIN values of 9.6-10 underwent polyA selection and TruSeq library preparation according to instructions provided by Illumina (TruSeq Stranded mRNA LT Kit, catalog #RS-122-2102), with 8 cycles of PCR. Samples were barcoded and run on a HiSeq 4000 in a PE100 run, using the HiSeq 3000/4000 SBS Kit (Illumina). An average of 53 million paired reads was generated per sample and the percent of mRNA bases averaged 85%.
RNA-seq bioinformatics. STAR aligner (Dobin et al., Bioinformatics 29, 15-21, 2013) was used to map reads to the human genome (GRCh37). The 2-pass mapping method (Engström et al., Nature methods 10, 1185-1191, 2013) was used, in which the reads are mapped twice. SAM files were processed and converted to BAM format using PICARD tools and then HTseq was used to compute the expression count matrix from the mapped reads. DESeq2 (Love et al., Genome Biology 15, 550, 2014) was used to normalize the raw counts (Median of Ratios method) and perform differential gene expression analysis. Data are presented on a gene-by-gene basis as normalized counts or after carrying out a variance-stabilizing transformation followed by PCA analysis.
ATAC sequencing (ATAC-seq). Cells were disassociated with Accutase for 20 minutes at 37° C. The cells were collected into 15 mL falcon tubes and DMEMF-12 containing 2% FBS was added to neutralize the enzyme. The cells were spun down and washed with PBS twice. The cells were spun again in a 1.5 mL Eppendorf tube and resuspended in 500 μL stem cell banker cell freezing buffer and stored at liquid nitrogen tank. When all data points were collected, the samples were sent to IGO core. ATAC-seq was performed by IGO core at MSKCC. Profiling of chromatin was performed by ATAC-Seq as described in Buenrostro et al., Nat Methods 10, 1213-1218, 2013. Briefly, 50,000 viably frozen neural crest cells were washed in cold PBS and lysed. The transposition reaction was carried out using TDEI Tagment DNA Enzyme (Illumina catalog #20034198) incubated at 37° C. for 30 minutes. The DNA was cleaned with the MinElute PCR Purification Kit (QIAGEN catalog #28004) and material was amplified for 5 cycles using NEBNext High-Fidelity 2×PCR Master Mix (New England Biolabs catalog #M0541L). After evaluation by real-time PCR, 7-10 additional PCR cycles were done. The final product was cleaned by aMPure XP beads (Beckman Coulter catalog #A63882) at a 1× ratio, and size selection was performed at a 0.5× ratio. […] An average of 42 million paired reads were generated per sample. […]

[6] = low to medium level of EDN3, GDNF
[7] = early exposure to GDF11 in combination with FGF2 and CHIR
[8] = RNA seq, day 3, following GDF11 treatment

Cc1ccc(C2=CCC(C)(C)c3ccc(C#Cc4ccc(C(=O)O)cc4)cc32)cc1 [AGN, reference compound]
HOXC9 expression ([1]; RA 1 μM or AGN 100 nM added to NC protocol): increased
sacral HOX gene expression ([1]; RA inhibition in GDF11 treated cultures): minimal impact
HOXC10 expression ([1]; RA inhibition in trunk NC (BMP condition)): promoted

Cc1c[nH]c(-c2cnc(NCCNc3ccc(C#N)cn3)nc2-c2ccc(Cl)cc2Cl)n1 [CHIR99021, 6-(2-(4-(2,4-dichlorophenyl)-5-(4-methyl-1H-imidazol-2-yl)pyrimidin-2-ylamino)ethylamino)nicotinonitrile, reference compound]
expression of HOX regulatory genes (CDX1, CDX2, CDX4) [1]: induced expression
expression of posterior genes HoxB7, HoxC9, HoxA10 and CDX4 [1]: induced the expression
IC50 values [2]: nanomolar

EDN3: growth factor EDN3 (American Peptide company, 88-5-10B) (CTCFTYKDKECVYYCHLDIIW; ends and bridges not checked; cysteine pairing not given here; UniProt P14138 97-117, looked up)
sacral NC migration ([3]; high EDN3 concentration): suppressed
sacral NC migration [3, 6]: promoted
vagal NC migration [4]: highly promoted

FGF2: activator of FGF signaling (R&D, 233-FB/CF)
expression of HOX regulatory genes (CDX1, CDX2, CDX4) [1]: induced expression
expression of posterior genes HoxB7, HoxC9, HoxA10 and CDX4 [1]: induced the expression

B1: GDF11: growth differentiation factor 11 or bone morphogenetic protein 11, a TGFβ family protein encoded by the GDF11 gene (protein, UniProt O95390 299-407, looked up)
Growth/differentiation factor …: NLGLDCDEHSSESRCCRYPLTVDFEAFGWDWIIAPKRYKANYCSGQCEYMFMQKYPHTHLVQQANPRGSAGPCCTPTKMSPINMLYFNDKQQIIYGKIPGMVVDRCGCS
transition from TNCs to SNCs [1]: promoted the transition
expression of posterior Hox genes by time of addition ([1]; GDF11 added from day 0 to day 3 versus later time points): higher expression
expression of stem cell-related factors SOX2 and MYC ([1]; GDF11 treated cultures): increased expression
expression of the more anterior HOX genes (HOX4-9) [1, 7]: without affecting
sacral HOX gene expression (HOX10-13) [1, 7]: dramatic and selective increase
levels of H3K4 methyltransferases such as SMYD2 [5, 8]: decreased levels
levels of H3K27Me3 demethylases JMJD6 and KDM6B [5, 8]: increased levels
gene expression of GRHL1, GRHL2 and GRHL3 ([5]; following GDF11 exposure): significant decrease
chromatin accessibility of GRHL factors ([5]; following GDF11 exposure, ATAC-seq): significant decrease
expression of RA signaling genes CRABP2, CYP26A1 and RBP4 ([5]; following GDF11 treatment): reduced

B2: GDNF: glial cell line derived neurotrophic factor (Peprotech, 450-10) (protein, UniProt P39905 78-211, looked up)
Glial cell line-derived …: SPDKQMAVLPRRERNRQAAAANPENSRGKGRRGQRGKNRGCVLTAIHLNVTDLGLGYETKEELIFRYCSGSCDAAETTYDKILKNLSRNRRLVSDKVGQACCRPIAFDDDLSFLDDNLVYHILRKHSAKRCGCI
sacral NC migration [3, 6]: promoted
vagal NC migration [4]: barely affected
